Reference: patent US20190144917

T1: alternate substrate/reporter peptide eGvndneeGffsarKsRLVGEGC (second substrate RLVGEGC), unmodified
T1 chain: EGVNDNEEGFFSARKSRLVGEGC

T2: alternate substrate/reporter peptide eGvndneeGffsarKsRLVGEGC veiled with DMNPE
T2 chain: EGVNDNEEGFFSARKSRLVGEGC

T3: C1-NPs: fluorescein-conjugated MMP substrate peptide C1 (FAM-sk-PLGLEEA-GC) coupled to iron oxide nanoparticles (not fully specified)
T3 chain: SKPLGLEEAGC

T4: S2: Biotin-CGPVPLSLVMK(Cy7)eGvndneeGffsar-NH2
T4 chain: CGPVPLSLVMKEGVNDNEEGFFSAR

B1: plasmin (protein)
chain: KVYLSECKTGNGKNYRGTMSKTKNGITCQKWSSTSPHRPRFSPATHPSEGLEENYCRNPDNDPQGPWCYTTDPEKRYDYCDILECEEECMHCSGENYDGKISKTMSGLECQAWDSQSPHAHGYIPSKFPNKNLKKNYCRNPDRELRPWCFTTDPNKRWELCDIPRCTTPPPSSGPTYQCLKGTGENYRGNVAVTVSGHTCQHWSAQTPHTHNRTPENFPCKNLDENYCRNPDGKRAPWCHTTNSQVRWEYCKIPSCDSSPVSTEQLAPTAPPELTPVVQDCYHGDGQSYRGTSSTTTTGKKCQSWSSMTPHRHQKTPENYPNAGLTMNYCRNPDADKGPWCFTTDPSVRWEYCNLKKCSGTEASVVAPPPVVLLPDVETPSEEDCMFGNGKGYRGKRATTVTGTPCQDWAAQEPHRHSIFTPETNPRAGLEKNYCRNPDGDVGGPWCYTTNPRKLYDYCDVPQCAAPSFDCGKPQVEPKKCPGRVVGGCVAHPHSWPWQVSLRTRFGMHFCGGTLISPEWVLTAAHCLEKSPRPSSYKVILGAHQEVNLEPHVQEIEVSRLFLEPTRKDIALLKLSSPAVITDKVIPACLPSPNYVVADRTECFITGWGETQGTFGAGLLKEAQLPVIENKVCNRYEFLNGRVQSTELCAGHLAGGTDSCQGDSGGPLVCFEKDKYILQGVTSWGLGCARPNKPGVYVRVSRFVTWIEGVMRNN
B2: recombinant MMP7 (protein)
chain: YSLFPNSPKWTSKVVTYRIVSYTRDLPHITVDRLVSKALNMWGKEIPLHFRKVVWGTADIMIGFARGAHGDSYPFDGPGNTLAHAFAPGTGLGGDAHFDEDERWTDGSSLGINFLYAATHELGHSLGMGHSSDPNAVMYPTYGNGDPQNFKLSQDDIKGIQKLYGKRSNSRKK
B3: recombinant MMP1 (protein)
chain: FVLTEGNPRWEQTHLTYRIENYTPDLPRADVDHAIEKAFQLWSNVTPLTFTKVSEGQADIMISFVRGDHRDNSPFDGPGGNLAHAFQPGPGIGGDAHFDEDERWTNNFREYNLHRVAAHELGHSLGLSHSTDIGALMYPSYTFSGDVQLAQDDIDGIQAIYGRSQNPVQ

Key:
[1] = target: T1, alternate substrate/reporter peptide …
[2] = target: T2, alternate substrate/reporter peptide …
[3] = target: T3, C1-NPs: fluorescein-conjugated MMP …
[4] = target: T4, S2: …

Protein	proteolysis [1]	proteolysis [2]	proteolysis (fluorescence dequenching) [3]	relative proteolysis (Cy7 signal after streptavidin depletion of uncleaved peptide) [4]
B1	proteolysis by plasmin	reduced proteolysis by plasmin, which was recovered by UV exposure	–	–
B2	–	–	significantly cleaved by MMP13, 7, 1, and 9	cleaved efficiently by MMP7 and MMP19
B3	–	–	significantly cleaved by MMP13, 7, 1, and 9	–
